# Laboratory results reported in PMC4229036.
# Target: Donor-labeled human factor Xa (fluorescein-EGR-chloromethylketone at the active site) (human)
# Experiment: fluorescence polarisation
substance,measurement,value
Recombinant human factor Va (FVa2) with a N2181Q mutation (natural protein),fluorescence anisotropy of active-site fluorescein (200 µM C6PS),0.21
same,fluorescence anisotropy of active-site fluorescein (400 µM C6PS),0.22
same,fluorescence anisotropy of active-site fluorescein (700 µM C6PS),0.22
same,fluorescence anisotropy of active-site fluorescein (on membranes),0.22
